# From patent publication US20150232568A1 (published 2015)
# Residue numbers refer to the chain shown, from its start.
# T1: human Jag2-DSL-EGF1-4 (R2-E388) (UniProt Q9Y219 24-388)
# T1 chain: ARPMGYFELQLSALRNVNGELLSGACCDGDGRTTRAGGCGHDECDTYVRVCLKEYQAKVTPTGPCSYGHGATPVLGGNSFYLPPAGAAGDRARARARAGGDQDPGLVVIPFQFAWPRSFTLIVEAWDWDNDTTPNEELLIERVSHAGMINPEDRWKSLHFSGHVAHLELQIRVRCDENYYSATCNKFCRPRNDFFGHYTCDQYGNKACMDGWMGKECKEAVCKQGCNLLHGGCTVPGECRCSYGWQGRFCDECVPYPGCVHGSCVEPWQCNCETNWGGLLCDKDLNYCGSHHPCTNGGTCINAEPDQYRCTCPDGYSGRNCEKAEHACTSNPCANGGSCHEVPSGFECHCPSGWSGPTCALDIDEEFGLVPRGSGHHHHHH
# T2: murine Jag2-DSL-EGF1-4 (M27-E388) (UniProt Q9QYE5 27-388)
# T2 chain: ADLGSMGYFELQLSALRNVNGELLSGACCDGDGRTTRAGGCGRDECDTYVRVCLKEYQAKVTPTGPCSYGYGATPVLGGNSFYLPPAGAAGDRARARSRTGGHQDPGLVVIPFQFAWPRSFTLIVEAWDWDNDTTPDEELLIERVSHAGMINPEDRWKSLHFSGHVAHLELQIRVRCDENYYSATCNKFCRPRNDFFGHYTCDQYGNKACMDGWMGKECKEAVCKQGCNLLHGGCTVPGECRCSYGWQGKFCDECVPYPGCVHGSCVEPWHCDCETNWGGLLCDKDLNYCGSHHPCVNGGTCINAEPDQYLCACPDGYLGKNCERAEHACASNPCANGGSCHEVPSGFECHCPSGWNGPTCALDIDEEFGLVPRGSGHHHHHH
# B1: C-1 (antibody, V domains shown)
# VH: EVQLVESGGGLVQPGGSLRLSCAASGFTFTNSDIHWVRQAPGKGLEWVGGITPADGYTDYADSVKGRFTISADTSKNTAYLQMNSLRAEDTAVYYCARSYWSSSPGSAFDYWGQGTLVTVSS
# VL: DIQMTQSPSSLSASVGDRVTITCRASQDVSTAVAWYQQKPGKAPKLLIYSASFLYSGVPSRFSGSGSGTDFTLTISSLQPEDFATYYCQQSYISPSTFGQGTKVEIK
# B2: B (antibody, V domains shown)
# VH: EVQLVESGGGLVQPGGSLRLSCAASGFTFTSYDIHWVRQAPGKGLEWVGGISPADGDTDYANSVKGRFTISADTSKNTAYLQMNSLRAEDTAVYYCARNDYDVRSVGSGMDYWGQGTLVTVSS
# VL: B1 VL with I93T, S94T, S96P
# B3: D-1 (antibody, V domains shown)
# VH: EVQLVESGGGLVQPGGSLRLSCAASGFTFTSNYMSWVRQAPGKGLEWVSTIWYQSGTTDYADSVKGRFTISADTSKNTAYLQMNSLRAEDTAVYYCARDSPWPSKGFGMDVWGQGTLVTVSS
# VL: DIQMTQSPSSLSASVGDRVTITCRASQSISSYLAWYQQKPGKAPKLLIYGASSRASGVPSRFSGSGSGTDFTLTISSLQPEDFATYYCQQYLSSPITFGQGTKVEIK
# B4: B-1 (antibody, V domains shown)
# VH: B2 VH with S105T
# VL: B1 VL with I93T, P95A, S96P
# B5: B-2 (antibody, V domains shown)
# VH: B2 VH
# VL: B1 VL with Y92W, I93T, S94A, S96P
# B6: B-3 (antibody, V domains shown)
# VH: B2 VH with S105F
# VL: B1 VL with Y92F, I93T, S94A, S96P
# B7: A (antibody, V domains shown)
# VH: EVQLVESGGGLVQPGGSLRLSCAASGFTFSNYGIHWVRQAPGKGLEWVGWITPDGGYTDYADSVKGRFTISADTSKNTAYLQMNSLRAEDTAVYYCARAGSWFAYWGQGTLVTVSS
# VL: B1 VL with I93T, S94T, S96P
# B8: A-2 (antibody, V domains shown)
# VH: B7 VH with P53G, D54N, T58S
# VL: B1 VL with I93T, S94T, S96P
# B9: C (antibody, V domains shown)
# VH: B1 VH with S102N, S103N, A108G
# VL: B1 VL with I93T, S94T, S96P
# B10: D (antibody, V domains shown)
# VH: B3 VH with D99S, P103S, S104G, K105E
# VL: B3 VL with L92Y, I96L
# B11: D-2 (antibody, V domains shown)
# VH: B3 VH with T28S, F29V, T30K, S31P, N32M, S35T, D99S, P103S, S104G, K105E
# VL: B3 VL with L92S, I96L
# Biological target: T1, human Jag2-DSL-EGF1-4 (R2-E388)
# Test: Biacore (SPR)
row,Kd,Binder
1,0.12 nM,B1
2,1 nM,B2
3,4.6 nM,B3

# Biological target: T2, murine Jag2-DSL-EGF1-4 (M27-E388)
# Test: Biacore (SPR)
row,Kd,Binder
1,0.73 nM,B1
2,1.1 nM,B4
3,0.0025 nM,B5
4,1 nM,B2
5,0.3 nM,B6
6,14 nM,B3

# Biological target: human Jag1-DSL-EGF1-4 (UniProt P78504 34-377)
# Test: Biacore (SPR)
row,Kd,Binder
1,0.31 nM,B1
2,94 nM,B7
3,0.3 nM,B8
4,2.3 nM,B9
5,0.52 nM,B3
6,13 nM,B10
7,1.1 nM,B11
